Data from the supplement of paper PMC9170038.

System: MS2 coat protein
Assay: apparent KD of MS2 coat protein; higher = weaker reporter binding
Settings: Eterna round: R107
Procedure: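 RNA-MaP round R107: designed RNA switches with theophylline, tryptophan, arginine or FMN aptamers are transcribed on-chip within common flanks. They are titrated with SNAP-549-labelled MS2 coat protein in RNA-MaP buffer (100 mM Tris pH 7.5, 80 mM KCl, 4 mM MgCl2), without ligand or with the indicated ligand. Median apparent KD per design.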

[1] = input ligand: theophylline 20 uM
[2] = input ligand: theophylline 2 mM
[3] = input ligand: tryptophan 2.4 mM

Sequence	apparent KD of MS2 coat protein (input ligand: arginine 13.2 mM)	apparent KD of MS2 coat protein (input ligand: none)	apparent KD of MS2 coat protein [1]	apparent KD of MS2 coat protein [2]	apparent KD of MS2 coat protein [3]
AGCCGGAUUACGGCCGCCACUGUAGACGUGACGAAAGUCGCGUCAACAUGAGGAUCACCCAUGUACAGGACCGGGUGGUCCGGCG [Omei Trp B SS A v1]	15 nM	13.7 nM	22.2 nM	17.8 nM	6.02 nM
GGUUGAAACUGAAGGAGCGAGAUGACAACAUUGGGUCUAACAUGAGGAUCACCCAUGUAAUCUCAGGUAGGUCGCAGUGACCAAA [Exclusion Arginine B GF 14]	38.1 nM	50.2 nM	41.5 nM	46.7 nM	43.1 nM
GGAACGAUCACUUCUUUAUCUAAGGCGGAUACCAGUCCUCGGUUUGACCCUUGGCAGCCGACAACAUGAGGAUCACCCAUGUUCU [theeternabot_exclusion_MS2_Theo_A_25]	12.5 nM	–	18.9 nM	–	15.6 nM
UACUUGCUGACGGCCGCCACUAGAACAUGAGGAUCACCCAUGUACGGCGGCCGUCAUGGGUGGACUAGGACCGGGUCAGCAAGAU [(Trp1)-(Ms2)-(T)'-(M)'-(Trp2)_Design6]	10.7 nM	12 nM	20.5 nM	13.9 nM	13.2 nM
GAUAUGAUAAGAAGGAGCGUCGAAAAUGGGUAAACAUGAGGAUCACCCAUGUAAAGGGAACGACAGGUAGGUCGCUUAUUAUAUC [AstromonsSSArgB#19]	146 nM	160 nM	190 nM	251 nM	134 nM
CCUGCGUUUCUUCUUUCGCAGGAGGAUGAUACCAGUAGGGAAACCUACCCUUGGCAGCAUGGGACAUGAGGAUCACCCAUGUGGA [SSThA NP+V+V2 #1]	354 nM	503 nM	522 nM	130 nM	430 nM
CUGGACAUGAGGAUCACCCAUGUAAAUCCUCGAGGACCGGUACGGCCGCCACUCGAACGAGUGGCACGCGAGUGCGCACUCGCGU [aLa]	26.9 nM	29.8 nM	45.6 nM	36.2 nM	33 nM
GUACGAGUUGAAUGUGAGACUGGCGUGGAAGGAGCGCACGGAGGUGCAGGUAGGUCGCCACAUGAGGAUCACCCAUGUCGGCUAG [XARG-A 23]	22.1 nM	23.2 nM	27.3 nM	29 nM	25.9 nM
CCAUAAGUACCGGUCCUCAGAUCCUCAUGACGAGGACCGGUACGGCCGCCACUCGAAACAUGAGGAUCACCCAUGUAAUAAUACC [Brourdmod18]	26.4 nM	–	101 nM	97.6 nM	–
UGUAAUGGGAUCAACCCAUGAGAGUCUGAAGGAGCGAUCGUAAGAUCAGGUAGGUCGCAGGAGACAUGAGGAUCACCCAUGUAUA [Arg A Ex t2]	33.3 nM	38.7 nM	56.6 nM	51.1 nM	39.5 nM
CGUCGAAACUGAAGGAGCGAGAUGACAACAUUGGGUCUAACAUGAGGAUCACCCAUGUAAUCUCAGGUAGGUCGCGGUGACAACA [Exclusion Arginine B GF 17]	40.1 nM	38.9 nM	48.5 nM	59.6 nM	51.7 nM
UAUCCACAUGAGGAUCACCCAUGUAGGGAAGGAGCGGUGAUUUCACCAGGUAGGUCGCCUUACUGAGGAGAGCCGGUGGAAUCGU [Exclusion - Arginine A (Freestyle 31)]	22.3 nM	24.9 nM	31.9 nM	32.9 nM	31.6 nM
UCCUCCUCCGCAAGGAGGAGGAGUUGCGAUACCAGCACGGCAACGUGCCCUUGGCAGCGCACAUGAGGAUCACCCAUGUCAUGUU [#1 Exclusion - Theophylline A Attempt #10 (HarryS)]	15.5 nM	–	29.5 nM	–	18.8 nM
GAUCGAAAUAACGUCUAGGAAAACUAGACGCGAGGACCGGUACGGCCGCCACUCGGGUGGCACAUGAGGAUCACCCAUGUAGAUC [#SwitchBubble 5 #GuTurnoff #MS2 3']	69.4 nM	–	110 nM	100 nM	–
GCACAUGAGGAUCACCCAUGUACAACUGAAGGAGCGAGACAGAACUCAGGUAGGUCGCAGACUGCACAAUUGCGGACGACAUGGG [Exclusion Arginine A GF21]	25.8 nM	34.2 nM	44.1 nM	40.9 nM	30.1 nM
ACAAGAGGUGGAAGGAGCGGGAGACAUGAGGAUCACCCAUGUGAAGUUUCGAGAGGAUCAUCCCAGGUAGGUCGCCAUGUCGAAA [ojjomullin]	199 nM	41.7 nM	84.1 nM	228 nM	49.7 nM
AUGGUUGUCGCGGCCGCCACUGUCGGCCGCCACUAAACAUGAGGAUCACCCAUGUAGGACCGGGACAGGACCGGGUGAUAACCAC [TryBS - #DoubleAptamer 3]	24.1 nM	25.9 nM	33.9 nM	33.2 nM	14.3 nM
ACGGAUCGGAAACGAUCCGCGGCUAGGGUGCGAGGACCGGUACGGCCGCCACUCGGGUAACAUGAGGAUCACCCAUGUCUGAUUU [ETA NP+V+V2 #14]	50.6 nM	123 nM	116 nM	118 nM	587 nM
UUGGAUAUGCGAAGGAGCGGGAAAUAUAUAUAUAUAAUCCUAACAUGAGGAUCACCCAUGUCCCAGGUAGGUCGCGCAUAUUUGG [12.H]	48.1 nM	51.7 nM	69.3 nM	70.7 nM	49.9 nM
CUAAUUAAAUCGGCCGCCACUUACUCAUGAGGUAACAACAUGAGGAUCACCCAUGUUUGAGGAUCAAGGACCGGGAUUUAAUUAG [AstrosSSTry#23]	24.9 nM	–	33.7 nM	30.1 nM	–
AGAUGUAGCGGAAGGAGCGACUUGAGGAUCACCCAAGUCUCCCGUUGUGGGAGUUCCUUAGGUCAGGUAGGUCGCCGUUACGUCA [Omei Arg B SS B v3]	31.6 nM	145 nM	154 nM	310 nM	82.8 nM
UCGUUUUAGUCGGCCGCCACUGUAUGCAUGUUUAACAUGAGGAUCACCCAUGUCCCGUUCUAUUUCAGGACCGGGACGUAAUCGA [JR_SSTryptoB_Sub008]	106 nM	–	382 nM	619 nM	–
GGCCUAUGGCGCGAUACCAGCUUGAGUGUACUGGCCAGGUACAUGAGGAUCACCCAUGUAAGCCCUUGGCAGCGCGUCAUAGGCC [#1 Exclusion - Theophylline B Attempt #23 (HarryS)]	8.91 nM	9.95 nM	17.9 nM	32.2 nM	9.74 nM
UUUACAUGAGGAUCACCCAUGUGCCAUGAUACCAGACAUGAAAAUGUCCCUUGGCAGCAUGGGUGUAGCGUCGGGAAACCGACGC [Kohoutovice]	97.5 nM	35 nM	545 nM	909 nM	14 nM
AAGACGCCGGGAAGGAGCGCAUCCAAACCACACAUGAGGAUCACCCAUGUAUAAAUAUGCAUGCAGGUAGGUCGCCCGAUGUCCC [Orbemative]	32.4 nM	31.6 nM	48.8 nM	42.6 nM	36.5 nM
AAUUUAAACGGAAGGAGCGUCACUUAAUAUCAACAUGAGGAUCACCCAUGUAAGGGUUGUAGACAGGUAGGUCGCCGUCAUUUGA [JR_AAArginiB_Sub023]	36.3 nM	39.2 nM	50.6 nM	41.9 nM	35.4 nM
AGCAUGUUAUCAGAUACCAGACAUCUUUUAAUACAUAUUACAUGAGGAUCACCCAUGUUGGUCCCUUGGCAGCUGAAAUAUUUCA [JR_Nu_SSTheophyB_Sub023]	124 nM	–	223 nM	–	360 nM
UUCAGCUAGUCGGCCGCCACUACAAGAGGAUCACCCUUGUAAUCCUAACACUGCUUCGGCAGUGGUAGGACCGGGACUAGCUGAG	15.1 nM	14.4 nM	17.3 nM	13.8 nM	20.1 nM
ACAUUUAACUGAAGGAGCGUGAUAAACAUGAGGAUCACCCAUGUACCACAGAUUCUUAGAUCACAGGUAGGUCGCAGACUAAUGA [JR_ExcArginiB_Sub013]	11.2 nM	11.7 nM	13.7 nM	12.6 nM	12.4 nM
